According to patent publication US8974802B2, “Medicament for the treatment of cancer of the pancreas” (Erytech Pharma, priority 2007, dated 2015):

Columns and labels:
MIA Paca-2 cells [1] = details: nude mice; PEG-asparaginase 12.5 or 25 IU/g per day i/p for 14 days; gemcitabine 80 mg/kg i/p days 1, 4, 7, 10; cited from earlier work
MIA Paca-2 cells [2] = details: PEG-asparaginase 0.8 kIU/kg; gemcitabine 80 mg/kg; mice; cited from earlier work
[3] = system: Mia PaCa-2 human pancreatic tumour cells; assay: Growth inhibition of human pancreatic tumours (Mia PaCa-2) in nude mice; assay type: in vivo; details: after 57 days, L-Aspa RBC single 200 IU/kg i.v., gemcitabine 4 x 60 mg/kg i.v.
From the text: The purpose of this experiment is to inject L-Aspa RBC into mice bearing human pancreatic tumours and to observe a tumour growth inhibition. A cell line sensitive to L-asparaginase in vitro, and deficient in L-asparagine synthase, was selected: Mia PaCa-2. To study the tumour growth inhibition after the injection of L-Aspa RBC, an in vivo protocol was set up with 4 groups of 12 mice. A reference treatment for cancer of the pancreas, gemcitabine, is included in the protocol. Human pancreatic tumour cells (Mia PaCa-2) in exponential growth phase (origin ATCC: American Type Culture Collection) were subjected to tryptic digestion, then counted and washed before finally being resuspended in a DMEM serum-free medium in order for them to be injected subcutaneously into 48 athymic nude/nude mice. The 48 athymic nude/nude (nude balb/c) mice, aged 5-6 weeks and between 18 and 22 g in weight, were supplied by Harlan (France). The animals were kept for 7 days in a specialized SPF (specific-pathogen-free) unit before the treatment. The 48 mice were divided randomly into 4 groups of 12 mice. […]

[4] = system: PANC-1 human pancreatic tumor (clone no. 6sC); assay: In vivo anti-tumoral study in mice bearing pancreatic tumor PANC-1; details: day 43, L-aspa RBC single 200 IU/kg i.v., gemcitabine 4 x 80 mg/kg i.v.
From the text: The objective of this study was to assess the antitumoral effects of L-asparaginase encapsulated in red blood cells (L-aspa RBC) administered in a human pancreatic tumor (PANC-1) xenograft model.
In this study, 4 groups of 15 mice received either L-asparaginase encapsulated in red blood cells, gemcitabine (reference treatment in pancreatic cancer), a combination of both agents or control item. A last group of 10 mice received no treatment and was used as control group.
A Log-growing culture of human pancreatic tumor cells, PANC-1 (obtained from ECCAC, UK), was subcloned and the clone no.
Clone no 6sC was trypsinized, counted, washed and resuspended in serum-free DMEM medium for sub-cutaneous injection to 100 nu/nu athymic mice.
Hundred athymic Nude mice of 5 week-old, weighing 20 g+/−3 g were supplied by Harlan France. […]
Four days after cell implantation, tumor volumes were measured and ranked according to size and median was calculated. […]
Tumor measurements were recorded 3 times a week (on Mondays, Wednesday and Friday) during 43 days.
The relative tumor volume is calculated by dividing the tumor volume at a given day by the tumor volume before treatment avoiding the bias due to statistical difference in tumor volume between groups on the day of injection.

[5] = system: human pulmonary and melanoma cells; details: Yunis et al. 1977; cited from earlier work
MIA Paca-2 cells [6] = details: cited from earlier work
PANC-1 cells = details: cited from earlier work
pancreatic carcinoma = details: cited from earlier work
[7] = direct injection; cited from earlier work
AsPC-1 = details: AACR 2006; cited from earlier work
BxPC-3 cells = details: 10 IU/ml; Denis et al. 1999; cited from earlier work
CFPAC-2 = details: AACR 2006; cited from earlier work
PANC 10.05 = details: AACR 2006; cited from earlier work
solid tumor = details: trial suspended; cited from earlier work

Nc1ccn([C@@H]2O[C@H](CO)[C@@H](O)C2(F)F)c(=O)n1 [gemcitabine]
cell growth inhibition in vivo (MIA Paca-2 cells [1]): 63.5%
decrease of tumour volume (MIA Paca-2 cells [2]): 29%
tumour volume [3]: 1353±1016 mm^3
mouse survival (mice remaining / still alive) [4]: 20%
relative tumor volume ([4]; tumor volume divided by volume before treatment): 51.8±17.1

B1: asparaginase (protein, UniProt P00805 23-348, looked up)
L-asparaginase 2: LPNITILATGGTIAGGGDSATKSNYTVGKVGVENLVNAVPQLKDIANVKGEQVVNIGSQDMNDNVWLTLAKKINTDCDKTDGFVITHGTDTMEETAYFLDLTVKCDKPVVMVGAMRPSTSMSADGPFNLYNAVVTAADKASANRGVLVVMNDTVLDGRDVTKTNTTDVATFKSVNYGPLGYIHNGKIDYQRTPARKHTSDTPFDVSKLNELPKVGIVYNYANASDLPAKALVDAGYDGIVSAGVGNGNLYKSVFDTLATAAKTGTAVVRSSRVPTGATTQDAEVDDAKYGFVASGTLNPQKARVLLQLALTQTKDPQQIQQIFNQY
notes: bacterial enzyme, CAS number 9015-68-3, hydrolyses and depletes asparagine
effect on growth [5]: no effect
inhibition of cell growth (MIA Paca-2 cells [6]; 0.0025 IU/ml, Wu et al. 1982): no effect
effect on the growth of the cells (MIA Paca-2 cells [6]; 0.1 IU/ml, Yunis et al. 1977): significant effect on the growth of the cells
effect on cell growth (MIA Paca-2 cells [6]; 0.5 and 1 IU/ml, Yunis et al. 1977): total inhibition of cell growth with cell death
inhibition of cell growth (PANC-1 cells; 0.0025 IU/ml, Wu et al. 1982): no effect
effect on cell growth (PANC-1 cells; 1 IU/ml, Yunis et al. 1977): has an effect
side-effects (pancreatic carcinoma; IV 1000 IU/kg/day, ten patients with inoperable pancreatic cancer, treatment stopped early): Serious side-effects appeared rapidly
clinical response (pancreatic carcinoma; two of the patients, Lessner 1977): no response
allergic reaction incidence [7]: 27%

B2: PEG-asparaginase: pegylated form of asparaginase (Oncaspar, Enzon Pharmaceuticals) (protein, UniProt P00805 23-348, looked up)
L-asparaginase 2: B1 L-asparaginase 2
modifications: PEG
in vitro cytotoxicity (IC50) (AsPC-1): greater than 20 IU/ml
cell growth inhibition (MIA Paca-2 cells [6]; 1 IU/ml, Denis et al. 1999): 61%
in vitro cytotoxicity (IC50) (MIA Paca-2 cells [6]; AACR 2006): 0.66 IU/ml
IC50 (MIA Paca-2 cells [6]; Denis et al. 1999): 0.13 IU/ml
cell growth inhibition (PANC-1 cells; 1 IU/ml, Denis et al. 1999): 100%
in vitro cytotoxicity (IC50) (PANC-1 cells; AACR 2006): 0.27 IU/ml
IC50 (PANC-1 cells; Denis et al. 1999): 0.25 IU/ml
cell growth inhibition in vivo (MIA Paca-2 cells [1]): 59%
cell growth inhibition (BxPC-3 cells): 51%
in vitro cytotoxicity (IC50) (CFPAC-2): greater than 20 IU/ml
decrease of tumour volume (MIA Paca-2 cells [2]): 14%
in vitro cytotoxicity (IC50) (PANC 10.05): 0.46 IU/ml
clinical trial outcome (solid tumor): toxicity was reached before efficacy
